The assay deals with SARS-CoV-2 nsp12 (RNA-dependent RNA polymerase with N-terminal NiRAN domain) (SARS-CoV-2, UniProt P0DTD1). Nature of the assay: cryo-EM structure.

B1: SARS-CoV-2 nsp9 with native N-terminus (natural protein)
chain: NNELSPVALRQMSCAAGTTQTACTDDNALAYYNTTKGGRFVLALLSDLQDLKWARFPKSDGTGTIYTELEPPCRFVTDTPKGPKVKYLYFIKGLNNLNRGMVLGSLAATVRLQ
For B1, the binding result is given as “binds”.

For the origin of these results see article doi:10.1101/2022.02.07.479471 (bioRxiv, 2022).
